Reference: the supplement of paper PMC10724198
± gives the standard deviation of the averaged measurements.

System: Saccharomyces cerevisiae
Assay: protein stability index of tFT-peptide fusion (C-terminal peptide) (PSI (0-1 scale)); higher = more stable (slower turnover)
Conditions: genetic background: wild type; temperature: 30 C
Method: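 Multiplexed protein stability (MPS) profiling in S. cerevisiae. Random 12-aa peptides (tFT-X12 library) are fused to the C-terminus of a sfGFP-mCherry tandem fluorescent timer, after mCherry and a GGGS linker. Cells are FACS-sorted into 8 mCherry/sfGFP bins and deep-sequenced. The protein stability index (PSI) is the read-weighted bin average, scaled from 0 (unstable) to 1 (stable). Only peptides with >10 reads are reported; cells were grown at 30 °C in SC-His with glucose.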
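Also: PSI is a weighted mean of sequencing reads over stability bins, variants kept only with over 10 reads, mCherry proximal and sfGFP distal, peptide attached via GGGS linker.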

| Sequence | protein stability index |
| --- | --- |
| FSYCFRLLPSSL | 0.558 ± 0.096 |
| FTCVVRRGDIQL | 0.675 ± 0.056 |
| FTFFFNCYSRSS | 0.655 ± 0.038 |
| FTPPPLLLPPPP | 0.698 ± 0.0037 |
| FTWRTIRPRCQW | 0.7184 ± 0.005 |
| FTYGPVQGAARG | 0.717 ± 0.015 |
| FVCCSIRFGCGW | 0.604 ± 0.014 |
| FVFDVTAYRGLL | 0.738 ± 0.03 |
| FVFWCFGSFCSC | 0.553 ± 0.015 |
| FVGMLSDRAPPP | 0.742 ± 0.041 |
| FVGSFYWSGFYV | 0.70213 ± 0.00049 |
| FVGSVFWCWSGR | 0.706 ± 0.032 |
| FVLLSPRYSPPR | 0.676 ± 0.027 |
| FVSFTAVALFFG | 0.567 ± 0.035 |
| FVSGSVCPLLPP | 0.667 ± 0.026 |
| FVSVSVRFHHSF | 0.575 ± 0.056 |
| FVVAERSDRNLV | 0.6875 ± 0.00093 |
| FWGGGRGLVGEV | 0.664 ± 0.024 |
| FWGQNKVCLSCQ | 0.571 ± 0.09 |
| FWGRYIGRDRGT | 0.62 ± 0.12 |
| FWMIYPHLLTPP | 0.629 ± 0.036 |
| FYCSWGGNDVDN | 0.692 ± 0.075 |
| FYLLTASVCGMF | 0.53 ± 0.0053 |
| FYPRPTVPPHGL | 0.585 ± 0.024 |
| GAAKDYLMALEG | 0.705 ± 0.076 |

| Sequence | protein stability index |
| --- | --- |
| GAAVWGPLCVWL | 0.6534 ± 0.0052 |
| GAEAFWAVRGGG | 0.721 ± 0.009 |
| GAGAVRPPARAS | 0.699 ± 0.059 |
| GAGGGRSERERG | 0.593 ± 0.0074 |
| GAGLSLALSGPL | 0.607 ± 0.0094 |
| GAGRGLRQGSGG | 0.666 ± 0.043 |
| GAIKKTQGGGYK | 0.69 ± 0.019 |
| GAKVALLSFGFA | 0.667 ± 0.1 |
| GALPPPPARGDL | 0.768 ± 0.024 |
| GAMVVRSSSPWT | 0.685 ± 0.019 |
| GANSILRDIEFL | 0.69 ± 0.05 |
| GARGGSGGGQPG | 0.661 ± 0.019 |
| GARGIHSVRVRR | 0.713 ± 0.053 |
| GARGLVGHWRRG | 0.615 ± 0.035 |
| GARGRAYDRTSQ | 0.669 ± 0.038 |
| GASSSPAQGCSL | 0.691 ± 0.048 |
| GATAGNPEATPS | 0.624 ± 0.074 |
| GATLGRQEPGHS | 0.671 ± 0.056 |
| GAVGDRVRVCGS | 0.668 ± 0.02 |
| GAWVAVTWAAGL | 0.729 ± 0.018 |
| GAWVFLSSRVVH | 0.7227 ± 0.0054 |
| GCCACDIGGEGG | 0.642 ± 0.0079 |
| GCCWVVISPAGY | 0.616 ± 0.044 |
| GCFGLLVSSLFS | 0.7111 ± 0.0024 |
| GCGARSVQSLGD | 0.707 ± 0.039 |

| Sequence | protein stability index |
| --- | --- |
| GCGGGVCGWWDA | 0.916 ± 0.12 |
| GCGGVGGFGGGL | 0.605 ± 0.047 |
| GCGREGGGLDKD | 0.781 ± 0.094 |
| GCGRGGIAGGPR | 0.702 ± 0.0014 |
| GCGSVVVGVGGG | 0.652 ± 0.028 |
| GCLCWVLSGRGA | 0.68 ± 0.035 |
| GCQLLSEVSVCL | 0.667 ± 0.0079 |
| GCRRGGGFLECV | 0.633 ± 0.034 |
| GCRRGGGMERAQ | 0.649 ± 0.05 |
| GCSLWCPDFCLC | 0.665 ± 0.0097 |
| GCVVLGFDSVAV | 0.842 ± 0.2 |
| GDECHSCSSPIA | 0.786 ± 0.13 |
| GDGGCKVEWVRG | 0.724 ± 0.012 |
| GDGLGFNRPNGR | 0.659 ± 0.025 |
| GDGWPTRSGGTG | 0.701 ± 0.01 |
| GDISILGSEYSM | 0.728 ± 0.0091 |
| GDLASASAWGVR | 0.681 ± 0.026 |
| GDPWLGVRNAVG | 0.749 ± 0.22 |
| GDQTLVSSRQSG | 0.6603 ± 0.002 |
| GDRGFTTEAGNC | 0.67 ± 0.018 |
| GDRGTLTPLRRQ | 0.678 ± 0.0073 |
| GDSSRVGPVGRA | 0.714 |
| GDVRLWMRGIER | 0.803 ± 0.077 |
| GEECGRERLMCF | 0.7291 ± 0.0055 |
| GEEEGSQGGCEV | 0.6611 ± 0.0061 |

| Sequence | protein stability index |
| --- | --- |
| GEGFLRVGLADV | 0.761 ± 0.09 |
| GEGLGIGGYVRG | 0.672 ± 0.044 |
| GEKSSDDYEVKD | 0.6554 ± 0.002 |
| GESGGVGGQCWR | 0.74 ± 0.0082 |
| GESPSRVRSSAG | 0.694 ± 0.036 |
| GESSLSTGAQHK | 0.67 ± 0.021 |
| GESWEKVMNKRM | 0.704 ± 0.049 |
| GFAALLSSLFFL | 0.683 ± 0.061 |
| GFAIWRDGKYRR | 0.674 ± 0.022 |
| GFCSVIVLSLLL | 0.487 ± 0.041 |
| GFFSCAPFPFNG | 0.741 ± 0.082 |
| GFGILGLPQPCV | 0.662 ± 0.067 |
| GFINYDHKVIRI | 0.77 ± 0.023 |
| GFLCGFVGVFAD | 0.56953 ± 0.00032 |
| GFLGTLARAGRE | 0.657 ± 0.068 |
| GFLVALVSRIGW | 0.565 ± 0.037 |
| GFRALRCPTAFS | 0.742 ± 0.078 |
| GFRFSERRFPGL | 0.733 ± 0.0092 |
| GFRGGAYRWCIS | 0.701 ± 0.03 |
| GFSGLRGFWSGM | 0.713 ± 0.04 |
| GFSGSPWSNPFV | 0.8663 ± 0.0025 |
| GFSKNCSCVVLC | 0.559 ± 0.029 |
| GFVGTVHLKCIS | 0.642 ± 0.031 |
| GFVRGDRSGVGG | 0.702 ± 0.036 |
| GFWSRIGDLFRG | 0.698 ± 0.037 |

| Sequence | protein stability index |
| --- | --- |
| GGAGEAWGGLRW | 0.767 ± 0.025 |
| GGAGGVVGGGGG | 0.616 ± 0.018 |
| GGARVAVCEGGE | 0.771 ± 0.026 |
| GGAVRSGRLFCC | 0.648 ± 0.022 |
| GGAWESGRVEQV | 0.684 ± 0.041 |
| GGCAGGVGRLAV | 0.692 ± 0.011 |
| GGCFGGVGGGSG | 0.707 ± 0.034 |
| GGCLSVLGLGSV | 0.688 ± 0.031 |
| GGCRQKPRGGAD | 0.666 ± 0.09 |
| GGCSDKVVRGGV | 0.695 ± 0.014 |
| GGCVGVLGGWGV | 0.695 ± 0.012 |
| GGDGGGERGEGK | 0.701 ± 0.027 |
| GGDVHGEGNVCG | 0.698 ± 0.027 |
| GGDWVGHVLDLW | 0.708 ± 0.012 |
| GGEGGWLGEGIG | 0.59 ± 0.0098 |
| GGESENEVGSRS | 0.644 ± 0.038 |
| GGEVPFRLCRLW | 0.6914 ± 0.0019 |
| GGFFLFAVGVGN | 0.627 ± 0.013 |
| GGGAGGGGVVVR | 0.643 ± 0.016 |
| GGGARCGGGCRV | 0.684 ± 0.03 |
| GGGARGDCLMGS | 0.6809 ± 0.0018 |
| GGGARGGGGWGG | 0.631 ± 0.097 |
| GGGCRASSLFPE | 0.6644 ± 0.0058 |
| GGGEGREEQEGR | 0.701 ± 0.019 |
| GGGEGVPDSASE | 0.668 ± 0.021 |

| Sequence | protein stability index |
| --- | --- |
| GGGGAGGGGGGG | 0.6739 ± 0.0021 |
| GGGGATSGRLSR | 0.705 ± 0.023 |
| GGGGCVMGVGRV | 0.668 ± 0.0092 |
| GGGGGAGGDGRG | 0.66 ± 0.022 |
| GGGGGAKGEGVR | 0.733 ± 0.1 |
| GGGGGGGGAGGV | 0.6985 ± 0.0011 |
| GGGGGGGGAWSG | 0.723 ± 0.037 |
| GGGGGGVRWASG | 0.707 ± 0.051 |
| GGGGGSMDLRDR | 0.697 ± 0.0076 |
| GGGGGVWWVGRV | 0.678 ± 0.074 |
| GGGGLFGCWVCG | 0.654 ± 0.011 |
| GGGGMVVGEVVG | 0.685 ± 0.038 |
| GGGGPGLEARSL | 0.618 ± 0.0078 |
| GGGGRGGVVRSG | 0.634 ± 0.095 |
| GGGGRGMWGIFG | 0.676 ± 0.045 |
| GGGGSCWYGNRL | 0.6353 ± 0.0027 |
| GGGGVFGVVRVG | 0.631 ± 0.037 |
| GGGGWGRGKGCW | 0.719 ± 0.0079 |
| GGGIERYCWLQI | 0.708 ± 0.067 |
| GGGKRGDMSVVV | 0.689 ± 0.0092 |
| GGGKRSERGGEP | 0.672 ± 0.12 |
| GGGLGRRLLGGR | 0.69 ± 0.078 |
| GGGRALGRVWPG | 0.684 ± 0.017 |
| GGGRGAGIPVIF | 0.623 ± 0.073 |
| GGGRGDWALRGG | 0.751 ± 0.011 |

| Sequence | protein stability index |
| --- | --- |
| GGGRGVAVVWVV | 0.61 ± 0.023 |
| GGGRRVCGVLAV | 0.619 ± 0.013 |
| GGGSGVLEWGSV | 0.714 ± 0.12 |
| GGGVEAIEVSQG | 0.678 ± 0.041 |
| GGGVGRLAGLLG | 0.693 ± 0.046 |
| GGGVRWGVGRGG | 0.652 ± 0.025 |
| GGGVSCGRWGTG | 0.639 ± 0.086 |
| GGGVSFWLGGVA | 0.633 ± 0.045 |
| GGGVVGPGGVLK | 0.705 ± 0.11 |
| GGGWGAGVRLTW | 0.757 ± 0.021 |
| GGGWGGGGGVWG | 0.686 ± 0.047 |
| GGGWRLIVLGWW | 0.585 ± 0.087 |
| GGHSVRCGGGAL | 0.758 ± 0.037 |
| GGILNLCVTSLC | 0.617 ± 0.022 |
| GGKTRGVRMCGG | 0.648 ± 0.014 |
| GGLGDIHSDDVE | 0.681 ± 0.019 |
| GGLGGGRRGVGR | 0.664 ± 0.012 |
| GGLIWRHGGGRG | 0.688 ± 0.023 |
| GGLLGAGGGCGV | 0.681 ± 0.046 |
| GGLVGACTRLSG | 0.657 ± 0.035 |
| GGPGGGRPGPRA | 0.6972 ± 0.0026 |
| GGPGGGVSGWEG | 0.704 ± 0.12 |
| GGPVDGSVDRGR | 0.627 ± 0.017 |
| GGRALVGGRRHG | 0.756 ± 0.14 |
| GGRAQVGGWWGR | 0.774 ± 0.031 |

| Sequence | protein stability index |
| --- | --- |
| GGRGAGGGVELR | 0.661 ± 0.075 |
| GGRGAGRGSVGG | 0.679 ± 0.034 |
| GGRGRVGEMGGR | 0.677 ± 0.015 |
| GGRHARRGRRRR | 0.75 ± 0.11 |
| GGRRVVKSWVLG | 0.66 ± 0.014 |
| GGSGAGRRGGGR | 0.72 ± 0.03 |
| GGSGGRVGVAGG | 0.645 ± 0.062 |
| GGSRGWGAAAGR | 0.766 ± 0.065 |
| GGSRPPPFRPPA | 0.724 ± 0.014 |
| GGSRVSGVVGKG | 0.608 ± 0.0076 |
| GGSVGSGSRLVV | 0.715 ± 0.038 |
| GGTGGWVVNRGV | 0.706 ± 0.079 |
| GGTRSDGYTQSR | 0.707 ± 0.017 |
| GGTSVLPPAVLF | 0.762 ± 0.004 |
| GGVCCGGLRGVS | 0.7398 ± 0.0039 |
| GGVCVGLWGGRG | 0.709 ± 0.043 |
| GGVDNWKAIRGI | 0.737 ± 0.043 |
| GGVFCGGGALWA | 0.614 ± 0.014 |
| GGVFWEEGAAER | 0.731 ± 0.023 |
| GGVGATSGRLSR | 0.712 ± 0.011 |
| GGVGGGVRRPGE | 0.669 ± 0.034 |
